Consider one substance from PMC2746561.

Experiment [1] has as its target full Ska1 complex (Rama1/Ska1/Ska2) (human) (UniProt Q96BD8). Put plainly: SEC + other: sucrose gradient sedimentation.
The target of experiment [2] is microtubules (polymerized tubulin) (UniProt Q6B856). The experiment in a line: co-sedimentation.

full Ska1 complex (Rama1/Ska1/Ska2), sequence (Q96BD8 whole entry): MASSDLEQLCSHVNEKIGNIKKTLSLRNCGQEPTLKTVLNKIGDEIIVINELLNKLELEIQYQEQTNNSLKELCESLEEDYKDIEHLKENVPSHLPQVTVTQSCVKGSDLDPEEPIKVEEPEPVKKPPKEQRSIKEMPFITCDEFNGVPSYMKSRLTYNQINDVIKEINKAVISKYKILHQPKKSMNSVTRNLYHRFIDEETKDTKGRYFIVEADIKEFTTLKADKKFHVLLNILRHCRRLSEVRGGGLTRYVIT
full Ska1 complex (Rama1/Ska1/Ska2), sequence (Q8WVK7 whole entry): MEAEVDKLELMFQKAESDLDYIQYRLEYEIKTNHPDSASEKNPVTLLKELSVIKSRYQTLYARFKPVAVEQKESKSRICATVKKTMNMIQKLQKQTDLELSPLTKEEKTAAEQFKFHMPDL
full Ska1 complex (Rama1/Ska1/Ska2), sequence (Q8IX90 whole entry): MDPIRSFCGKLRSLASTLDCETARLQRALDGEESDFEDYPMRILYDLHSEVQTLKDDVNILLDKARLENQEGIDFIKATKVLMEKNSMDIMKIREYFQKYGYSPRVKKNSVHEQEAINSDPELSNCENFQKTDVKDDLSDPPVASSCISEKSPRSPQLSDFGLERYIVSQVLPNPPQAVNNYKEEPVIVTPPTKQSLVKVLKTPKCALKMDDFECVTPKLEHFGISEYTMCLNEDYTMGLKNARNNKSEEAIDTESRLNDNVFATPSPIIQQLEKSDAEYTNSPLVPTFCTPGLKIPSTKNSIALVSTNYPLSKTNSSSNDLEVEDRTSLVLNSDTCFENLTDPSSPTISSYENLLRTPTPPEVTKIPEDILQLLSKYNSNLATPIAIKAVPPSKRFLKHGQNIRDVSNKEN

For “full Ska1 complex (Rama1/Ska1/Ska2) (from UniProt Q96BD8 1-255; Q8WVK7 1-121; Q8IX90 1-412)”, in experiment [1], the stoichiometry N amounted to 2. Further, the stoichiometry N (per tubulin dimer) in experiment [2] worked out at 1.

By stoichiometry N is commonly meant the number of molecules, sites or subunits per partner or assembly.
